The text below walks through data of publication PMC4475461.

Data set [1] deals with T1, HLTF HIRAN domain (Homo sapiens, UniProt Q14527 55-180).
T1 sequence: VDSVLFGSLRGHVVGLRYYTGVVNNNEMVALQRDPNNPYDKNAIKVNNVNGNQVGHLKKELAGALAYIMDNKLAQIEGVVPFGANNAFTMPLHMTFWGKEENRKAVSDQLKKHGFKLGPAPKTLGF
The data set is described as follows: NMR.

Data set [2] has as its target T1, HLTF HIRAN domain. Briefly: NMR. The source holds these as a separate data set.

Like-named read-outs stand apart in the source and are kept apart here.

For TTTTTTTTTT (ssDNA) [dT10 (NMR)], the binding result in the data set with HLTF HIRAN domain [1] is on record as “binds”.

As to GCTGATAAAT (ssDNA) [d(GCTGATAAAT)], the binding result in the data set with HLTF HIRAN domain [2] is reported as “binds”.

B1: d(GCTGATAAAT) duplex (dsDNA)
DNA 1: GCTGATAAAT
DNA 2: ATTTATCAGC
For the molecule B1, the binding result in the data set with HLTF HIRAN domain [2] is listed as “no binding”.
